Reference: patent US20210332142A1 (Genentech, published 2021)

Columns and labels:
[1] = molecular target: T1, recombinant human Tie2 extracellular domain (human, UniProt Q02763 23-748); assay: SPR multi-cycle kinetics, IgG captured, kinetic analysis; human Tie2; kinetic analysis
T1 construct: whole entry named; also called Recombinant human Tie2 ECD; hu Tie2
Experimental: (§1) Binding to recombinant human and cyno Tie2 was analyzed using a high performance multi-cycle kinetics format with a contact time of 60 seconds, a dissociation time of 60 seconds, a flow rate of 100 μl/minute and Tie2 concentrations of 5 μM, 2.5 μM, 1.25 μM, 625 nM, 313 nM and 156 nM. Tie2 concentrations of 5 μM, 2.5 μM and 1.25 μM were injected twice. Results were analyzed using Biacore T200 Evaluation Software v3.0 (GE Life Sciences). Results from all three surface densities were analyzed together using the 1:1 Binding model with multiple Rmax and the RI parameter set to zero.

[2] = molecular target: T2, recombinant cyno Tie2 extracellular domain (cynomolgus monkey, UniProt Q02763 23-748 (human entry)); assay: SPR multi-cycle kinetics, IgG captured, kinetic analysis; cyno Tie2; kinetic analysis
T2 construct: also called Recombinant cyno Tie2 ECD; cy Tie2
T2 chain: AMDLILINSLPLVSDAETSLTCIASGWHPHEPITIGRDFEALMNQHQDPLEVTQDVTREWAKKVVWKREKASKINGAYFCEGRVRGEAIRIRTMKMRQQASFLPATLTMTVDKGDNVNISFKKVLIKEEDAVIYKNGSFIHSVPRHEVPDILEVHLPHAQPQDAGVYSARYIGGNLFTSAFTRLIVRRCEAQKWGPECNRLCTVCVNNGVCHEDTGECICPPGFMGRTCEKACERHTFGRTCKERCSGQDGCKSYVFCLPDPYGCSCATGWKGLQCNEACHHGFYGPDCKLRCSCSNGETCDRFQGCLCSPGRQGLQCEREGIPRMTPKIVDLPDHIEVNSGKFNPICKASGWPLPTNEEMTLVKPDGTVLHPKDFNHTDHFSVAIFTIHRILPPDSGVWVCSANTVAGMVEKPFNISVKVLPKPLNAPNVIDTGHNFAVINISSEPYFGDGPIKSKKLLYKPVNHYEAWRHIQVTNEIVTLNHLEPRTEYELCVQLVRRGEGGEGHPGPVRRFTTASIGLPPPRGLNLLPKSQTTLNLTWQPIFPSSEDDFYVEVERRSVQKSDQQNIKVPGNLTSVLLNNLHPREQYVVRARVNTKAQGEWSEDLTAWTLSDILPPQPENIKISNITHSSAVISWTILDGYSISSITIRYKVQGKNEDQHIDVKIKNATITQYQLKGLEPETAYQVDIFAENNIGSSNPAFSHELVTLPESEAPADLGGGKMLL
Experimental: as §1

[3] = molecular target: T2, recombinant cyno Tie2 extracellular …; assay: SPR multi-cycle kinetics, IgG captured, kinetic analysis
Experimental: as §1

human Tie2ECD.flag = molecular target: T3, human Tie2ECD.flag (human, UniProt Q02763 23-748); assay: Biacore, hIgG captured, 25C
T3 construct: also called hTie2.flag; not shown: C-terminal Flag tag
T3 sequence (Q02763 23-748 limits assumed): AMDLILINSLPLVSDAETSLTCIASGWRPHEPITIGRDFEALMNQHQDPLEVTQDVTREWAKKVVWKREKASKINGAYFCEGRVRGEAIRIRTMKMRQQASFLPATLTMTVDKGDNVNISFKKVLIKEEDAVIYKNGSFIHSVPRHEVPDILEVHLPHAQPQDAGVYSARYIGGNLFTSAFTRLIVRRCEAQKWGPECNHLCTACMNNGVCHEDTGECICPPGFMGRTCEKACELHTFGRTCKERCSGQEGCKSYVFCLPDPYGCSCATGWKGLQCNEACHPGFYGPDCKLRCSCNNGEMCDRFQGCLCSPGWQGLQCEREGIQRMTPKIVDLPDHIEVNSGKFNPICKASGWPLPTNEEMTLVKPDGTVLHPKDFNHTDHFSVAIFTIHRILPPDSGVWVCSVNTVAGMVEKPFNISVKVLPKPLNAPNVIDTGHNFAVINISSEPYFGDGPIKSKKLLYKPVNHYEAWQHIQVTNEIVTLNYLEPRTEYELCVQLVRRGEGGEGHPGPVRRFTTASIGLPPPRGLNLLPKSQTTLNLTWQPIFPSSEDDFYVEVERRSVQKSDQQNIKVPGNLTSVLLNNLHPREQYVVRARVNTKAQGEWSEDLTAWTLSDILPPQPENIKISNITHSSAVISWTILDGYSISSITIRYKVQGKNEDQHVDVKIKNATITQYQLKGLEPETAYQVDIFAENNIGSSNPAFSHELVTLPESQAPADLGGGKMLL
Experimental: (§2) Monovalent affinities of selected anti-Tie2 hIgGs were determined using a Biacore T200 instrument (GE Life Sciences). Anti-humanFc was covalently immobilized on a Series S CM5 Biacore sensor chip to enable non-covalent capture of anti-Tie2 antibodies and binding of human or rat Tie2ECD.flag was monitored in real time at 25° C. using a multi-cycle kinetics experiment format. Between cycles, the surface was regenerated with 3 M MgCl₂. Monovalent affinities were determined by kinetic analysis, using Biacore Evaluation Software (GE Life Sciences) to fit a 1:1 binding model to the data.

rat Tie2ECD.flag = molecular target: T4, rat Tie2ECD.flag (rat, UniProt A0ABK0L6J5 19-740); assay: Biacore, hIgG captured, 25C
T4 construct: extracellular domain; also called rTie2.flag; not shown: C-terminal Flag tag
Experimental: as §2

[4] = molecular target: T2, recombinant cyno Tie2 extracellular …; assay: SPR, IgG captured, steady state analysis
Experimental: as §1

[5] = molecular target: T1, recombinant human Tie2 extracellular …; assay: SPR, IgG captured, steady state analysis
Experimental: as §1

[6] = molecular target: T2, recombinant cyno Tie2 extracellular …; assay: SPR, IgG captured, 37C
Experimental: (§3) Antibodies were screened for binding to recombinant human and cyno Tie2 using a Biacore T200 instrument (GE Life Sciences). Briefly, a human antibody capture chip was generated using a Series S CM5 chip, a human antibody capture kit, and an amine coupling kit (GE Life Sciences). Antibodies diluted to 5 μg/ml were captured using a flow rate of 10 μl/minute and a contact time of 20 seconds. Binding of 300 nM and 1500 nM recombinant human and cyno Tie2 extracellular domain to the captured antibodies was analyzed at 37° C. using a single cycle kinetics method with a flow rate of 50 μl/minute, a contact time of 60 seconds and a dissociation time of 120 seconds. Between cycles, the chip was regenerated using 3M MgCl₂ injected for 30 seconds at 30 μl/minute. Data were evaluated using Biacore T200 Evaluation software (GE Life Sciences). Kinetic constants were obtained using a 1:1 binding model with the parameter RI set to zero. Selected antibodies (Table 7A-7B; ch denotes rabbit Abs; TEK denotes rat Abs) were taken forward for secondary activity screening in Fab-NDK format (see Example 8 below).

[7] = molecular target: T1, recombinant human Tie2 extracellular …; assay: SPR, IgG captured, 37C
Experimental: as §3

Kd [1]: 3000 nM
Kd [2]: 3000 nM
koff [3]: 0.44 s⁻¹
kon [3]: 150000 M⁻¹ s⁻¹
Kd (human Tie2ECD.flag): 1200 nM
Kd (rat Tie2ECD.flag): 1600 nM
Kd [4]: 3000 nM
Kd [5]: 3000 nM
Kd [6]: 4000 nM
koff [6]: 0.3 s⁻¹
kon [6]: 90000 M⁻¹ s⁻¹
Kd [7]: 3000 nM
koff [7]: 0.3 s⁻¹
kon [7]: 100000 M⁻¹ s⁻¹
B1: Tie2.1 (antibody, human IgG1, V domains shown)
VH: EVQLVESGGGLVQPGGSLRLSCAASGFTFSNTDISWVRQAPGKGLEWVGRISPSDGNTYYADSVKGRFTISADTSKNTAYLQMNSLRAEDTAVYYCARRTRWASWAMDYWGQGTLVTVSS
VL: DIQMTQSPSSLSASVGDRVTITCRASQDVSTAVAWYQQKPGKAPKLLIYSASFLYSGVPSRFSGSGSGTDFTLTISSLQPEDFATYYCQQSYTTPPTFGQGTKVEIKR
notes: human IgG1 in all later assays; also called Ab1; Tie2.1.M100c
